The text below walks through data of the DeepSol protein solubility set.

This data set can be described thus: soluble on expression in E. coli; label from the status in PepcDB or PDB records.
In the case of “MAHHHHHHMPPPNTLQRGSEWVAQCMRDIKAAKLQQTVRPYSNGTPAGEALPVRTIVATSRIHRGEHLGTVKRDSIMTGERASQLLRRACRGGPSQTDVTAATGLQPLAAQRFDDLVSRISSLPSALSVPPHLLLSRDALLVTVALYLTRSPLNAGVLPAESPLRAWADALPRRPPPMGALLRRSFLSHDDVEPLPRRLRLGQRTKEVAPGEDVAAASTELMVQAVEQGELELADLRRPEMETALTPTVLTNYFKGRMSALTQRQRQSQRARGGVAEAEEGALHLFMTWERQLQTHFVDALLPVLLLPSCGSCASNLEAVQDSAAWLGEESALRWAHFMTRSRAVNLNWRHPGPPQLSIVPLVDMLNHTSRANANVVYQREDSGDVCVTASRTIEAGEELVLRYNHIGQRGCLFGDLPRPSKPTAEHERGRLSGKAAAVADEVHRIEKRQYWELYACDEDEEAVQHTGHTPSTSFTASTRCGTFDPAPPAAVGQQEMEQEVQWLWRFGFLRSNEEKNREAALLWSRGLRSRIAHLTDVRRKGRPGEFVLGVPEGLQHLREQREQLERNRYNNKKVFPPQQL”, the “soluble on expression in E. coli” value was “not soluble”.

With “MGSDKIHHHHHHMCVEGLTSSGSVNWHDAWLTLSDGVKLVARLWIPKGEGPWPALVMRQPYGRALASTVTYIHPGWWASHGYLVVVQDVRGQGDSEGHFNGFLQEASDTSQTHAWVRELPECNGRLGTYGFSYQGLTQLLAEPGTPPPDCLAPAMAGVDERNHWSCEGGAHWWHLGLAWGLQLAALQARRCGNWEAWRELRRSLEDDSYLYEGPALLKRHDPDGMSFRWLHQANQNDHGWVVHKPLDSWLRQPMLLLGGWWDPHLNGLLDLYQRSSQVGGSPELHIGPATHLQWWPDAQQLQLEFFDRHLKSSKALTNSRPHGRIWNITSCSWQTFASPTQTTTSANASWSLVSGGMACLDPSEGTLHQNKKGGGVVYVVHDPWRPVQSVGGHLSPKPGVAERSALDQRADVATFTSTALQEPLQLNGIPLLQLTVQSDQPGFDLCVALSIVNCNHSEVKQLSTGFLRVQGEQALRMLPRKVKLQPILADLERGEHLRLSLAGAAWPAIGVNPGHDRHPCGPPGPHCQVVTMTLQLNGSKLRFLSWNSGKIDFDLPQEF”, the “soluble on expression in E. coli” value was “not soluble”.

As to “MGEELNRLLDVLGNETRRRILFLLTKRPYFVSELSRELGVGQKAVLEHLRILEEAGLIESRVEKIPRGRPRKYYMIKKGLRLEILLTPTLFGSEMYEAKGVRKSPEYEQAKELIKSQEPINVKMRELAEFLHELNERIREIIEEKRELEEARILIETYIENTMRRLAEENRQIIEEIFRDIEKILPPGYARSLKEKFLNINI”, the “soluble on expression in E. coli” value is “soluble”.

For the sequence “SEKAVHSSTTSGPAVPGETTKTGTSIIDTAASAVQSFAPVNQIHQHLCAFHFYADDMARQVEAHHFCSHVNEEMRQCLIYDGPDANARLIGLEYIVSEKLFMTLPDEEKKLWHSHEWEVKGGFLFMPGVPGAIQRKDLDKVAKTYGKVFHFWQVDLGHELPIGLPNVMMAVTRDGQLFHEMIQEAEKRFGVSVEGERDSRAYMSGPELGIHPLANGGGKGMKLELREVDIKPVESVGSVFV”, the “soluble on expression in E. coli” value is “soluble”.

Turning to “MTVLQLPNIPRITLLGTTALLFEAPGELDLAPQQRIWALADLSKNWPQVREAVPGMNNLMLTFETPPRDLSGLKTRLMEAWEHCQPLPLQGRIIELPVVYGGDGGPHMADVIAHTGLDIETIANLHCEPLYPVYALGSHPGYCYLGGMDLRLATPRRKVPVLDIGAGSVSIGGVQTGISASAGPSGWNTIGRTEMVFFDADQHPPALLQPGDQLRLRIERIIRLEHHHHHH”, the “soluble on expression in E. coli” value is recorded as “not soluble”.

For the sequence “WLDHVQNLVPGLDRQGLLEACEFARESEQRAIAAQNSWAEGTSSFQTGLEIAEILADLKLDQESLVAAVIYRGVREGKITLEAVNKHFGPVVAKLIEGVLRMAAISASLNPRHSMVLGTQAQVENLRKMLVAMVDDVRVALIKLAERTCAIRAVKNADEEKRHRVAREVFDIYAPLAHRLGIGHIKWELEDLSFRYLEPDQYKQIAKLLHERRLDREQYIANVMSQLKEALAATGVQADLSGRAKHIYSIWRKMQRKGLDFSQIYDVRAVRVLVPEMRDCYTALGIVHTLWRHIPKEFDDYIANPKENGYRSLHTAVIGPEGKVLEVQIRTHSMHEEAELGVCAHWRYKGTDVKASSNHYEEKISWLRQVLEWHEELGDIGGLAEQLRVDIEPDRVYVFTPDGHAIDLPKGATPLDFAYRVHTEVGHNCRGAKINGRIVPLNYSLQTGEQVEIITGKHSGPSRDWLNSNLGYVTTSRARAKIVHWFKLQARDQNVAAGKALIERELSRLALPPVDFDRLAEKANVRTAEDMFAALGAGDLRLAHLVNYAQQLVEPDRDSEQLELIPRKPSKIGHGKRGDVQIQGVGNLLTQMAGCCQPLPGDPIVGYITLGRGVTIHRQDCATALQLAGREPERMIQVSWGPEPVRTYPVDIAIRAYDRSGLLRDVSQVLLNERINVLAVNTRSNKEDNTATMQLTIEIPGLDALGRLLARVSQLPNIIEARRNR”, the “soluble on expression in E. coli” value is “not soluble”.

As for “MYSIEVRTHSALHVVKGAVVKVLGSEAKWTYSTYVKGNKGVLIVKFDRKPSDEEIREIERLANEKVKENAPIKIYELPREEAEKMFGEDMYDLFPVPEDVRILKVVVIEDWNVNACNKEHTKTTGEIGPIKIRKVRFRKSKGLLEIHFELLELENPSLEHHHHHH”, the “soluble on expression in E. coli” value is “soluble”.

As for “LPTGIIIAATPLGNIGDASPRLVHALANATVVAAEDTRRTASLAAALGVEIKGQLVSNFDHNEQARVGKLIEAARTGTVLVVSDAGMPVVSDPGFALIDAAHDANIPVTCFPGPS”, the “soluble on expression in E. coli” value is reported as “not soluble”.

As for “EQQADGTWLMDGWISIRKASNLLEHDLVDEAERYSTLGGYLLWQFGYIPAAGEQITVDGLIFEIVSVNKHNIGKVRVHRTQPENE”, the “soluble on expression in E. coli” value is “not soluble”.

Consider “MGSDKIHHHHHHMKTYLVGGSVRDEILGLPVTDHDYVVVGVSPEEMVHLGFRPVGKDFPVFLHPQSQEQYALARTERKVSRGYKGFEVYASPEVTLQEDLARRDLTINAIAKDEYGNIIDPFGGIADLEAGVLRHIGPAFTEDPVRVLRTARFAARFGFHIAPETLALMNEMVHNGEVDALVSERVWQEIARGLMERHPSRMFYALRDCGALTRIMPEVDALFGVPQPPQHHPEIDTGVHVMMVIDYAASRNYSLQVRFAALTHDLGKGTTPPEEWPRHIGHEARSVRLVQGLCERINPPNEMRNLALLVARYHGDVHRAAELRPVTIANLLQGVDAYRKPERFEEFLQACACDFHGRPGYATRPYPQADRLREAFQAARSVDAGAIAKEMARNVSDPSRLPVAINTRVSETRIAEIRNRLGSLA”, for which the “soluble on expression in E. coli” value is on record as “not soluble”.

In the case of “MGSDKIHHHHHHMAVINPFVVGGYVSPRYFCDRVAETENLIRNLINGRNVALVSTRRMGKTGLIRHCFYQPLIKEGYYTFFIDIYATSSLKEFVFALGKGIFEKLKPQGNKFIDRFFSIITSLRIGFKLDSITGEPILELGLGDIHAPETTLEEIFIYLEQADKPCIVAIDEFQQISSYPEKNLEAILRTKVQHCSNSNFVFAGSQRHIMMNIFNSPSRPFYQSVSMMHLGAIPLEVYKPFVKGLFEENGKKVTDQLVENVYTLFDGHTWYVQLILNELFILTDKKGICDVPMINLALNNIIATQDFTFQEIFSRLPEKQKEIMIAIAKEQKAKGVTSAAFIKKYRLTSASSVQSGLKGLLEKDMLTQESGGYQVYDRLFNIWLRRNY”, the “soluble on expression in E. coli” value is “not soluble”.

For the sequence “MSLDFSIPEEYMMLKESMREFVKRELMPLEKTLLERELSLWTEPGHLIPDEDHKRLMQKTKELGFWGLEVDEEFGGQGLGMLAKTLVVEELSKSLVGFSNHGFTLPPDAPNLYYLHECCGPRQREKYFVPYCNGDVDSAMACTEPGAGSDVSGLKTKAVKKGDKWVINGTKSFISKCDYDNVFFIVIAVTDPSASTKDRFTAFLIDREHPGVRIGKEIPVIGPMPTWDLILEDVEVDDDAILGDVGKAFIPLQNRFGVRRIELASSCTGMAERLIQMMIDQANTRITFGQPLAERGTIQNWIADSTMELEQVRWLLYYAAWKSDQGHKDLRIEGASVKVAATEMLTRVADRAIQIHGGLGVSHELGIEYVARHVRLWRIVEGPSEVHRWLVARQLLKEGHHHHHH”, the “soluble on expression in E. coli” value is on record as “not soluble”.
